In article PMC5394236:

Molecular target: GST fused recombinant Pparγ LBD protein (UniProt P37231)
Assay: co-immunoprecipitation (IP: Flag) with immunoblot band intensity quantification
Details: lysates of HEK293 cells transfected with Flag-Lrp1β-Wt or Mut mixed with GST fused recombinant Pparγ LBD protein; n=3; parent: est. 100; read off a plot

Sequence of UniProt P37231 (P37231 whole entry, the tested form may be a part): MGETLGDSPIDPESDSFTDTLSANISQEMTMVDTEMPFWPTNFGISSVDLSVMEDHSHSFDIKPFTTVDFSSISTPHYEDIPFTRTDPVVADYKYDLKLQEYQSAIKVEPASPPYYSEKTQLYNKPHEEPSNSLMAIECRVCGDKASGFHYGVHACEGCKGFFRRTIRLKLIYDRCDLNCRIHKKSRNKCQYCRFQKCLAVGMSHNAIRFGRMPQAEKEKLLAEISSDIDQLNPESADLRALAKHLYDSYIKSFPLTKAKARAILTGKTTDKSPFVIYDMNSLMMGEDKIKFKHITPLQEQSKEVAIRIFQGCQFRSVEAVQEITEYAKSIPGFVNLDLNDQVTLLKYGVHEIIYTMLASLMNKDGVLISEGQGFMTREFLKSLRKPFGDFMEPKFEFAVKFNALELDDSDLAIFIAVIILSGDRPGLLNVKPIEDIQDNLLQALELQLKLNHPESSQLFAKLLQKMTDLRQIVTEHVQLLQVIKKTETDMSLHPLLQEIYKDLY

- percent of parent: 13%
Substance: Flag-Lrp1β-Wt (VGGLL) L4487A; L4488A
